IntAct's records for PubMed 25083872

B1: Vesicle-associated membrane protein-associated protein SCS2 (Saccharomyces cerevisiae), P40075 (parent)
chain: MSAVEISPDVLVYKSPLTEQSTEYASISNNSDQTIAFKVKTTAPKFYCVRPNAAVVAPGETIQVQVIFLGLTEEPAADFKCRDKFLVITLPSPYDLNGKAVADVWSDLEAEFKQQAISKKIKVKYLISPDVHPAQNQNIQENKETVEPVVQDSEPKEVPAVVNEKEVPAEPETQPPVQVKKEEVPPVVQKTVPHENEKQTSNSTPAPQNQIKEAATVPAENESSSMGIFILVALLILVLGWFYR
partner: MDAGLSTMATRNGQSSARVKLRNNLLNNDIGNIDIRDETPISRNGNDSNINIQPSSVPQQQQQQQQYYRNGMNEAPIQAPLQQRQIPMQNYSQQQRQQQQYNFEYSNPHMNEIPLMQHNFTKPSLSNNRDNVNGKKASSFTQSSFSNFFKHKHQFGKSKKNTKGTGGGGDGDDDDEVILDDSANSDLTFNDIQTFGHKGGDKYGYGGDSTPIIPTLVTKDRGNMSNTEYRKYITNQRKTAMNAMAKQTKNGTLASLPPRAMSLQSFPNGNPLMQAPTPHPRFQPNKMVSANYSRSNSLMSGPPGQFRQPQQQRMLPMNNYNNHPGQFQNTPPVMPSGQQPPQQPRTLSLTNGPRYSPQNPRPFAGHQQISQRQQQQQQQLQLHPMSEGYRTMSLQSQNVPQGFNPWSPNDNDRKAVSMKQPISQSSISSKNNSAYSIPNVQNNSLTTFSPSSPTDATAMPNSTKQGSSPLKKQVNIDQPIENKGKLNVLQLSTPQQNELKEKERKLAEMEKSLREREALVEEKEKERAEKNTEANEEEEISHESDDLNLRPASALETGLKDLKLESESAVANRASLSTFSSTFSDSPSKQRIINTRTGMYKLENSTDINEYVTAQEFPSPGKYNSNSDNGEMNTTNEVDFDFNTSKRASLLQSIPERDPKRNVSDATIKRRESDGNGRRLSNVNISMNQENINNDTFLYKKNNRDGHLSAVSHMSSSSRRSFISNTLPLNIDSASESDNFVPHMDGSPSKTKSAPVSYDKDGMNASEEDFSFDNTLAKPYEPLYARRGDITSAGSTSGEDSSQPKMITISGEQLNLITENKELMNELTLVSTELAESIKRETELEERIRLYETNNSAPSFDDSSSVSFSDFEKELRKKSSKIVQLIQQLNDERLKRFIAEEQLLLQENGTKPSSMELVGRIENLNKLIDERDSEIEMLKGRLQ

Variants of: B1
Details: with ym11_yeast ym11, P39523

**Q.** For MSAVEISPDVLVYKSPLTEQSTEYASISNNSDQTIAFKVKTAAPKFYCVRPNAAVVAPGETIQVQVIFLGLTEEPAADFKCRDKFLVITLPSPYDLNGKAVADVWSDLEAEFKQQAISKKIKVKYLISPDVHPAQNQNIQENKETVEPVVQDSEPKEVPAVVNEKEVPAEPETQPPVQVKKEEVPPVVQKTVPHENEKQTSNSTPAPQNQIKEAATVPAENESSSMGIFILVALLILVLGWFYR [T42A], which “effect of a mutation on the interaction” value is on record?
**A.** The value was “disrupting interaction strength”.
